Experimental data published in patent US20260217793A1 (Chugai, published 2026).

T1: FcγRIIa type R extracellular domain with C-terminal His tag (human, UniProt P12318 34-217)
T1 sequence (looked up): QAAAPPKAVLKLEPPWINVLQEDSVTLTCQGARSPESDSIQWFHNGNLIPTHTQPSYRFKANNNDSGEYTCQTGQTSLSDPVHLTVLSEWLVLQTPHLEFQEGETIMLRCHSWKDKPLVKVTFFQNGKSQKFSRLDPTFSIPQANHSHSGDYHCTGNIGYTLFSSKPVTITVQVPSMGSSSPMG

T2: FcγRIIb extracellular domain with C-terminal His tag (human, UniProt P31994 43-217)
T2 sequence (looked up): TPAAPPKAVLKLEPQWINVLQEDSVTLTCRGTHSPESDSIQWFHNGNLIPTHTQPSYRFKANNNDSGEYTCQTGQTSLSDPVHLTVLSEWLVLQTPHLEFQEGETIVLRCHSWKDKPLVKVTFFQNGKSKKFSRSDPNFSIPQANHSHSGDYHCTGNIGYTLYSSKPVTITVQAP

B1: IL6R-BP262/IL6R-L (antibody, human IgG1, kappa)
heavy: QVQLQESGPGLVKPSETLSLTCAVSGHSISHDHAWSWVRQPPGEGLEWIGFISYSGITNYNPSLQGRVTISRDNSKNTLYLQMNSLRAEDTAVYYCARSLARTTAMDYWGEGTLVTVSSASTKGPSVFPLAPSSKSTSGGTAALGCLVKDYFPEPVTVSWNSGALTSGVHTFPAVLQSSGLYSLSSVVTVPSSSLGTQTYICNVNHKPSNTKVDKKVEPKSCDKTHTCPPCPAPELLGDDSVFLFPPKPKDTLMISRTPEVTCVVVDVSEEDGEVKFNWYVDGVEVHNAKTKPREEQYNSTYRVVSVLTVLHQDWLNGKEYKCKVSNKALPAPIEKTISKAKGQPREPQVYTLPPSRDELTKNQVSLTCLVKGFYPSDIAVEWESNGQPENNYKTTPPVLDSDGSFFLYSKLTVDKSRWQQGNVFSCSVMHEALHNHYTQESLSLSP
light: not shown
B2: IL6R-BP479/IL6R-L (antibody, human IgG1, kappa)
heavy: QVQLQESGPGLVKPSETLSLTCAVSGHSISHDHAWSWVRQPPGEGLEWIGFISYSGITNYNPSLQGRVTISRDNSKNTLYLQMNSLRAEDTAVYYCARSLARTTAMDYWGEGTLVTVSSASTKGPSVFPLAPSSKSTSGGTAALGCLVKDYFPEPVTVSWNSGALTSGVHTFPAVLQSSGLYSLSSVVTVPSSSLGTQTYICNVNHKPSNTKVDKKVEPKSCDKTHTCPPCPAPDLLGDDSVFLFPPKPKDTLMISRTPEVTCVVIDLAEEDGEVKFNWYVDGVEVHNAKTKPREEQYNSTYRVVSVLTVLHQDWLNGKEYKCKVSNKALPAPIEKTISKAKGQPREPQVYTLPPSRDELTKNQVSLTCLVKGFYPSDIAVEWESNGQPENNYKTTPPVLDSDGSFFLYSKLTVDKSRWQQGNVFSCSVMHEALHNHYTQESLSLSP
light: not shown
B3: IL6R-BP497/IL6R-L (antibody, human IgG1, kappa)
heavy: QVQLQESGPGLVKPSETLSLTCAVSGHSISHDHAWSWVRQPPGEGLEWIGFISYSGITNYNPSLQGRVTISRDNSKNTLYLQMNSLRAEDTAVYYCARSLARTTAMDYWGEGTLVTVSSASTKGPSVFPLAPSSKSTSGGTAALGCLVKDYFPEPVTVSWNSGALTSGVHTFPAVLQSSGLYSLSSVVTVPSSSLGTQTYICNVNHKPSNTKVDKKVEPKSCDKTHTCPPCPAPDLLGDDSVFLFPPKPKDTLMISRTPEVTCVVIDVAEEDGEVKFNWYVDGVEVHNAKTKPREEQYNSTYRVVSVLTVLHQDWLNGKEYKCKVSNKGLPRPIEKTISKAKGQPREPQVYTLPPSRDELTKNQVSLTCLVKGFYPSDIAVEWESNGQPENNYKTTPPVLDSDGSFFLYSKLTVDKSRWQQGNVFSCSVMHEALHNHYTQESLSLSP
light: not shown
B4: IL6R-BP483/IL6R-L (antibody, human IgG1, kappa)
heavy: QVQLQESGPGLVKPSETLSLTCAVSGHSISHDHAWSWVRQPPGEGLEWIGFISYSGITNYNPSLQGRVTISRDNSKNTLYLQMNSLRAEDTAVYYCARSLARTTAMDYWGEGTLVTVSSASTKGPSVFPLAPSSKSTSGGTAALGCLVKDYFPEPVTVSWNSGALTSGVHTFPAVLQSSGLYSLSSVVTVPSSSLGTQTYICNVNHKPSNTKVDKKVEPKSCDKTHTCPPCPAPDLLGDDSVFLFPPKPKDTLMISRTPEVTCVVVDLAEEDGEVKFNWYVDGVEVHNAKTKPREEQYNSTYRVVSVLTVLHQDWLNGKEYKCKVSNKALPAPIEKTISKAKGQPREPQVYTLPPSRDELTKNQVSLTCLVKGFYPSDIAVEWESNGQPENNYKTTPPVLDSDGSFFLYSKLTVDKSRWQQGNVFSCSVMHEALHNHYTQESLSLSP
light: not shown
B5: IL6R-BP488/IL6R-L (antibody, human IgG1, kappa)
heavy: QVQLQESGPGLVKPSETLSLTCAVSGHSISHDHAWSWVRQPPGEGLEWIGFISYSGITNYNPSLQGRVTISRDNSKNTLYLQMNSLRAEDTAVYYCARSLARTTAMDYWGEGTLVTVSSASTKGPSVFPLAPSSKSTSGGTAALGCLVKDYFPEPVTVSWNSGALTSGVHTFPAVLQSSGLYSLSSVVTVPSSSLGTQTYICNVNHKPSNTKVDKKVEPKSCDKTHTCPPCPAPDLLGDDSVFLFPPKPKDTLMISRTPEVTCVVIDVAEEDGEVKFNWYVDGVEVHNAKTKPREEQDNSTYRVVSVLTVLHQDWLNGKEYKCKVSNKALPRPIEKTISKAKGQPREPQVYTLPPSRDELTKNQVSLTCLVKGFYPSDIAVEWESNGQPENNYKTTPPVLDSDGSFFLYSKLTVDKSRWQQGNVFSCSVMHEALHNHYTQESLSLSP
light: not shown
B6: IL6R-BP498/IL6R-L (antibody, human IgG1, kappa)
heavy: QVQLQESGPGLVKPSETLSLTCAVSGHSISHDHAWSWVRQPPGEGLEWIGFISYSGITNYNPSLQGRVTISRDNSKNTLYLQMNSLRAEDTAVYYCARSLARTTAMDYWGEGTLVTVSSASTKGPSVFPLAPSSKSTSGGTAALGCLVKDYFPEPVTVSWNSGALTSGVHTFPAVLQSSGLYSLSSVVTVPSSSLGTQTYICNVNHKPSNTKVDKKVEPKSCDKTHTCPPCPAPDLLGDDSVFLFPPKPKDTLMISRTPEVTCVVIDVAEEDGEVKFNWYVDGVEVHNAKTKPREEQYNSTYRVVSVLTVLHQDWLNGKEYKCKVSNKALPRPIEKTISKAKGQPREPQVYTLPPSRDELTKNQVSLTCLVKGFYPSDIAVEWESNGQPENNYKTTPLVLDSDGSFFLYSKLTVDKSRWQQGNVFSCSVMHEALHNHYTQESLSLSP
light: not shown
B7: IL6R-BP269/IL6R-L (antibody, human IgG1, kappa)
heavy: QVQLQESGPGLVKPSETLSLTCAVSGHSISHDHAWSWVRQPPGEGLEWIGFISYSGITNYNPSLQGRVTISRDNSKNTLYLQMNSLRAEDTAVYYCARSLARTTAMDYWGEGTLVTVSSASTKGPSVFPLAPSSKSTSGGTAALGCLVKDYFPEPVTVSWNSGALTSGVHTFPAVLQSSGLYSLSSVVTVPSSSLGTQTYICNVNHKPSNTKVDKKVEPKSCDKTHTCPPCPAPELLGDDSVFLFPPKPKDTLMISRTPEVTCVVVDVSEEDGEVKFNWYVDGVEVHNAKTKPREEQDNSTYRVVSVLTVLHQDWLNGKEYKCKVSNKALPAPIEKTISKAKGQPREPQVYTLPPSRDELTKNQVSLTCLVKGFYPSDIAVEWESNGQPENNYKTTPPVLDSDGSFFLYSKLTVDKSRWQQGNVFSCSVMHEALHNHYTQESLSLSP
light: not shown

Legend:
[1] = biological target: T1, FcγRIIa type R extracellular domain …; experiment: ratio of SPR KDs vs IL6R-B3/IL6R-L
[2] = biological target: T2, FcγRIIb extracellular domain with …; experiment: ratio of SPR KDs vs IL6R-B3/IL6R-L
[3] = biological target: T2, FcγRIIb extracellular domain with …; experiment: ratio of SPR KDs, FcγRIIaH over FcγRIIb, same variant
[4] = biological target: T2, FcγRIIb extracellular domain with …; experiment: ratio of SPR KDs, FcγRIIaR over FcγRIIb, same variant

| Binder | KD (IIaR) of parent polypeptide/KD (IIaR) of altered polypeptide [1] | KD (IIb) of parent polypeptide/KD (IIb) of altered polypeptide [2] | KD (IIaH)/KD (IIb) [3] | KD (IIaR)/KD (IIb) [4] |
| --- | --- | --- | --- | --- |
| B1 | 0.5 | 25.8 | 375 | 17 |
| B2 | 1.2 | 55.5 | 268 | 16.1 |
| B3 |  | 764 | 236 | 21 |
| B4 | 0.8 | 39.7 |  | 16.8 |
| B5 | 14.8 | 1680 |  | 40.1 |
| B6 | 21.7 |  | 564 | 30.8 |
| B7 | 0.5 | 27.4 | 637 | 19.6 |
